From PMC11302882, “tRF-27 competitively Binds to G3BPs and Activates MTORC1 to Enhance HER2 Positive Breast Cancer Trastuzumab Tolerance”

Tests used:
HA-G3BP2 full length = target: T1, HA-G3BP2 full length (UniProt Q9UN86 1-482); experiment: EMSA; not stated; BeyoMag Chemiluminescent RNA EMSA Kit per manufacturer; biotin-RNA pull-down from cell lysates; details: protein: recombinant; tags: N-terminal HA; chain copies: 2; label: biotin; predicted loop
T1 sequence: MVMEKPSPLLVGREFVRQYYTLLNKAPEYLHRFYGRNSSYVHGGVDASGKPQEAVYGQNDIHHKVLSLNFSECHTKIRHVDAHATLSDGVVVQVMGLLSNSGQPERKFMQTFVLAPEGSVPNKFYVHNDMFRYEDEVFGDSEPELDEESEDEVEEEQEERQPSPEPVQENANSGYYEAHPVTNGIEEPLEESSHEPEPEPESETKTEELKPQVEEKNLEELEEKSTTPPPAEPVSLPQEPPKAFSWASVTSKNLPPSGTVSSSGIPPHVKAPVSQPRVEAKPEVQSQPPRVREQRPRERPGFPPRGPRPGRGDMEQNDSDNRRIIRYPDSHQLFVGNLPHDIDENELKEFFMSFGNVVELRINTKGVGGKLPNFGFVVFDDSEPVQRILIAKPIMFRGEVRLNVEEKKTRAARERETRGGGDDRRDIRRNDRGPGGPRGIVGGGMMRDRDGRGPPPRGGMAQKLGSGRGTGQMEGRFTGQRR

[1] = target: T2, HA-G3BP2 lacking NTF2 domain (UniProt Q9UN86 1-10+134-482, internal_change); experiment: as above; details: protein: recombinant; tags: N-terminal HA; label: biotin; predicted loop
T2 sequence: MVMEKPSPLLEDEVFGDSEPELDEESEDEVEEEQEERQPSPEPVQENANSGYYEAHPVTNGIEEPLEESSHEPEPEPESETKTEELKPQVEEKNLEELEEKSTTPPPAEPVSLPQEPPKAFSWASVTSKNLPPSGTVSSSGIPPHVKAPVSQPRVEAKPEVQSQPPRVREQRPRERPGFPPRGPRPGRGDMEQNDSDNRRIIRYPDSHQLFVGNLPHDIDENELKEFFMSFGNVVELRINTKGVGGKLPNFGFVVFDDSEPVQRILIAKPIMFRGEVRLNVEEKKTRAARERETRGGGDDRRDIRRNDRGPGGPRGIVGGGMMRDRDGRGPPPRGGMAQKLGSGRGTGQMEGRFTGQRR

B1: tRF-27 (tRF-27-ZDXPHO53KSN) (ssRNA)
RNA: UUGACUGCAGAUCAAGAGGUCCCCGGU
B1: binds (HA-G3BP2 full length); no binding [1].
